# How the values were obtained:
# [1] = biological target: Hsp-N (ATPase domain of mouse Hsp70; lacks the peptide-binding domain) (mouse); test: cross-linking; without sulfatide (with or without lactosylceramide); 0.1 μM protein in PBS, 0.1% glutaraldehyde 10 min 30 °C, SDS-PAGE and Western blot
# [2] = biological target: Recombinant mouse Hsp70 (70-kDa heat shock protein), wild type (mouse) (UniProt Q61696); test: as above
stoichiometry N [1],stoichiometry N [2],Substance
2,,Hsp-N (ATPase domain of mouse Hsp70; lacks the peptide-binding domain) (domain or fragment)
,2,"Recombinant mouse Hsp70 (70-kDa heat shock protein), wild type (from UniProt Q61696 1-641) (natural protein)"
